Literature values in paper PMC4203807.

Molecular target: clathrin heavy chain N-terminal domain (Rattus norvegicus) (UniProt P11442)
Chain of UniProt P11442 (P11442 1-363): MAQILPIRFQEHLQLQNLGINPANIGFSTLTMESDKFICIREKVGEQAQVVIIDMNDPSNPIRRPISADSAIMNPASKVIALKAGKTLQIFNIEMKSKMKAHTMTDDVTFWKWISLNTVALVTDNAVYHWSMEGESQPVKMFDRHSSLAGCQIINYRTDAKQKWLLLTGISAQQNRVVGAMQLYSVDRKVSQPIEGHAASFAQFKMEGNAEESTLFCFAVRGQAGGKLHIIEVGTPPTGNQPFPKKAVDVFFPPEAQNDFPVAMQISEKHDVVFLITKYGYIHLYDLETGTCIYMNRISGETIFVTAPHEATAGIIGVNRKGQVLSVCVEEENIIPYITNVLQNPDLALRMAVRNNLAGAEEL

- Kd: 250 µM
Substance: AP180 623-680 (from UniProt Q05140)
